Four molecules from PMC4160250 (PLoS ONE, 2014) can be followed below.

The labels stand for the following.
B1: UbP_C (C-terminal part of DC-UbP, residues 129-234), His-tagged (domain or fragment, human, UniProt Q8WUN7 129-234, looked up)
chain: MIEEKSDIETLDIPEPPPNSGYECQLRLRLSTGKDLKLVVRSTDTVFHMKRRLHAAEGVEPGSQRWFFSGRPLTDKMKFEELKIPKDYVVQVIVSQPVQNPTPVEN
notes: 15N-labelled where it is the observed protein of an NMR titration, unlabelled where it is titrated into 15N-UBA1; also called UbL domain of DC-UbP; UbL; source: E. coli, purified (Ni-NTA, Superdex-75)
B2: UbE1, recombinant, purified (enzyme, mouse, UniProt Q02053 1-1058, looked up)
chain: MSSSPLSKKRRVSGPDPKPGSNCSPAQSALSEVSSVPTNGMAKNGSEADIDESLYSRQLYVLGHEAMKMLQTSSVLVSGLRGLGVEIAKNIILGGVKAVTLHDQGTTQWADLSSQFYLREEDIGKNRAEVSQPRLAELNSYVPVTAYTGPLVEDFLSSFQVVVLTNSPLEAQLRVGEFCHSRGIKLVVADTRGLFGQLFCDFGEEMVLTDSNGEQPLSAMVSMVTKDNPGVVTCLDEARHGFETGDFVSFSEVQGMIQLNGCQPMEIKVLGPYTFSICDTSNFSDYIRGGIVSQVKVPKKISFKSLPASLVEPDFVMTDFAKYSRPAQLHIGFQALHQFCALHNQPPRPRNEEDATELVGLAQAVNARSPPSVKQNSLDEDLIRKLAYVAAGDLAPINAFIGGLAAQEVMKACSGKFMPIMQWLYFDALECLPEDKEALTEEKCLPRQNRYDGQVAVFGSDFQEKLSKQKYFLVGAGAIGCELLKNFAMIGLGCGEGGEVVVTDMDTIEKSNLNRQFLFRPWDVTKLKSDTAAAAVRQMNPYIQVTSHQNRVGPDTERIYDDDFFQNLDGVANALDNIDARMYMDRRCVYYRKPLLESGTLGTKGNVQVVIPFLTESYSSSQDPPEKSIPICTLKNFPNAIEHTLQWARDEFEGLFKQPAENVNQYLTDSKFVERTLRLAGTQPLEVLEAVQRSLVLQRPQTWGDCVTWACHHWHTQYCNNIRQLLHNFPPDQLTSSGAPFWSGPKRCPHPLTFDVNNTLHLDYVMAAANLFAQTYGLTGSQDRAAVASLLQSVQVPEFTPKSGVKIHVSDQELQSANASVDDSRLEELKATLPSPDKLPGFKMYPIDFEKDDDSNFHMDFIVAASNLRAENYDISPADRHKSKLIAGKIIPAIATTTAAVVGLVCLELYKVVQGHQQLDSYKNGFLNLALPFFGFSEPLAAPRHQYYNQEWTLWDRFEVQGLQPNGEEMTLKQFLDYFKTEHKLEITMLSQGVSMLYSFFMPAAKLKERLDQPMTEIVSRVSKRKLGRHVRALVLELCCNDESGEDVEVPYVRYTIR
notes: also called purified UbE1; source: E. coli (vector pET28a), purified
B3: GST-fused UFD domain of UbE1 (residues 950-1058) (domain or fragment)
chain: not shown
notes: UbE1, residues 950-1058 (C-terminal Ub-fold domain, UFD), from the UbE1 that was cloned from a mouse cDNA library; vector pGEX-4T-3; also called GST-UFD; C-terminal Ub-fold domain; source: E. coli, purified
B4: His-tagged DC-UbP (natural protein, human, UniProt Q8WUN7 1-234, looked up)
chain: MGGCVGAQHDSSGSLNENSEGTGVALGRNQPLKKEKPKWKSDYPMTDGQLRSKRDEFWDTAPAFEGRKEIWDALKAAAHAFESNDHELAQAIIDGANITLPHGALTECYDELGNRYQLPVYCLAPPINMIEEKSDIETLDIPEPPPNSGYECQLRLRLSTGKDLKLVVRSTDTVFHMKRRLHAAEGVEPGSQRWFFSGRPLTDKMKFEELKIPKDYVVQVIVSQPVQNPTPVEN
notes: DC-UbP / UBTD2, human, full-length; vector pET22b(+); 15N-labelled (M9 medium) in the NMR titrations; also called His6-DC-UbP; full-length DC-UbP; source: E. coli, purified (Ni-NTA, Superdex-75)

Conditions in all cases: both partners purified
In test [1] the target is B3. Put plainly: NMR titration; 15N-labelled UbP_N or UbP_C titrated with GST-UFD at a molar ratio of 1:3; peak intensity changes.
The target in test [2] is B4. Briefly: NMR titration; 15N-labelled DC-UbP (100 uM) titrated stepwise with unlabelled USP5, UbE1, FH or SCCH; 1H-15N HSQC, 20 mM phosphate, 50 mM NaCl, pH 6.5, 298 K.
For test [3], the target named is B4. Put plainly: NMR titration; 15N-labelled DC-UbP (20 uM in Fig. S4C) titrated with GST-UFD, up to 5:1; relative peak intensities.
In test [4] the target is B2. Put plainly: NMR titration; 15N-labelled DC-UbP (100 uM) titrated stepwise with unlabelled USP5, UbE1, FH or SCCH; 1H-15N HSQC, 20 mM phosphate, 50 mM NaCl, pH 6.5, 298 K.

In the case of B1, in test [1], the binding result is reported as “binds”. Consider B2, for which, in test [2], the “mean relative peak intensity of the UBD domain of DC-UbP at 1:1 molar ratio (free DC-UbP = 1)” value came out at 0.54 and the “mean relative peak intensity of the UbL domain of DC-UbP at 1:1 molar ratio (free DC-UbP = 1)” value was found to be 0.39. On to B3, for which, in test [3], the “mean relative peak intensity of the UBD domain of DC-UbP at 5:1 molar ratio” value worked out at 0.69 and the “mean relative peak intensity of the UbL domain of DC-UbP at 5:1 molar ratio” value came to 0.44.

On to B4, for which, in test [4], the binding result was “binds”.
